Consider two molecules from article PMC3145889 (Oncogene, 2011).

Test [1] deals with HMG20b (human (endogenous in 293T and HeLa)) (UniProt Q9P0W2). Description: co-IP.
In a further test the target is T1, His-HMG20b (human, UniProt Q9P0W2 1-317).
T1 sequence: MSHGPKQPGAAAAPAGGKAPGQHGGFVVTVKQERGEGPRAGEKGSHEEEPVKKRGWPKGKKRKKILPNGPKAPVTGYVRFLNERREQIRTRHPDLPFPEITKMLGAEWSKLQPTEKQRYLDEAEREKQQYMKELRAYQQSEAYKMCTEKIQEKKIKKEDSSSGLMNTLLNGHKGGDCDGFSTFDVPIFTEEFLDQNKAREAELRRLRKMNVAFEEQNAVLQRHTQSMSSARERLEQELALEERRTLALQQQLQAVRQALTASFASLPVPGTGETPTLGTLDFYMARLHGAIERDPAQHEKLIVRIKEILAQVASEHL
Description: pull-down.

Ends that are not written are not given here. Some results are limits rather than exact numbers.

Consider BRCA2, P51587 1-3418, for which, in test [1], the fraction of the protein present in the complex was < 5%.

Turning to YSVIENSALAFYTSCSRKTSVSQTSLLEAKKWLRE (also: biotin label, position not given here) [Biotin-labelled BRC5 peptide (BRCA2 1661-1695)], the binding result with His-HMG20b is on record as “binds”.
